Laboratory results taken from the domain aggregation screens of Martell et al. (2025).

Assay: soluble fraction after stress (log2 fold change); higher = more stays soluble; pooled small domains, quantitative proteomics
Settings: stress: 75 degC
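Also: 20 min heating vs room temperature control held 20 min.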

Sequence	soluble fraction (log2)
HMDLRIKEIMSERNVTSAWLAEKVGISKVAVSNIVTGKSSPSLDNLLKIADALNVSITTLIG	-2.6
HMDLRYKVQYNFIDQGMMTKDELLKFSLNQDDVSKIAVFDNDSKQWKEIYAITEISEKLGIS	-0.452
HMDLTIEQTTVLGKRLFSNALNSLGKKQRNIKKDAIESLLKRMNLKDMDQLYESIGIGDKSPLLMAQILL	-0.156
HMDLVIALNSRIRVIREPFFGKLGTVIDLPHKLHKMESGTMTRVAKIKFDDRTEEIIPRTNLEVILS	-3.54
HMDLYEILGVRRGAGGGEIRRAYRRLARRYHPDVNPGDREAQARYALITRAFETLNDPERRRAYDAGVP	-0.817
HMDMAENEEYKVIMGQAQQLAEQFFPADDNTRRIMLGQLKLENYSLYLLTKQILDEATKGQAAAAN	-0.264
HMDNFDVVLTSPGDQKVQVIKAVRSITGLGLKEAKDLVDGAPNTVKEGVKKLDAEEMLKQLTEAGATGEL	0.35
HMDNFQFIGYSQQQGQIAVAWIKSLDNGRLVRVEVSDSLEGWRVSDISAQGVNLTKGQQWLMLKRL	-1.74
HMDNIGKTLGQNQTRQYKVAYAEAAKLPAIIMGLVPLPKPPVVDERLRSLYVTATPEQHRQIETLMNRI	-0.114
HMDNITIYSSNGKIYVNAIGGEKIELFNITGQKVAEKVAVSGINVLDAVYDITLVKVGSKVVKVV	-2.36
HMDNLATRILKELNNNDGFLPLSDKSQPEAIYQAFGISKKSYKTAIGTLYKKRLITISENGIQLTD	-0.67
HMDNLSQMQERILEFIIRSKDQSGYTPSLREIGDEVGLKAVSSVKYQLEQLKDAHYISFDANTARAIRVLI	-1.68
HMDNMFVEERQALIYEELQSNGRVRVKDLSKKFNVSEDLIRKDLNVLEKEGKLRKIYGGAVLAK	0.237
HMDNNNQAAFMGALNSLKEYAKVNGNIVTKQDVESYFKDLGLDDSKYQMITGYLLANDITVKG	0.181
HMDNQYGVYSDEKNNVEIHWKRIDHPSVAKDHLDIEAYQNGKRVDINNQQADHYRYLINQEMNE	0.201
HMDPAFAQHHDRALSILHSRGYEVHDSDTDLHWARPVLEFEAYKGSLEYKIVMSYPDLNIIEERVD	-0.906
HMDPASYEARLSTLREQGAQQLDPVRFQYLATLAQRLPTQTPGVALILANKLRAGLSDYEQRLSEAGS	-0.0569
HMDPDAIVSKGQLGALNNAIGRFIAQGGSQTVVDKGIAKRNPNAKKPADLTNSQAESLEAAILKILNG	0.73
HMDPLGALSDRERQVLALIGQGHGLQAIADQLGVSYKTAANTSSALKKKLGVDGINGLMKFALDSG	-0.443
HMDPLGGFTKGDVDMDGRVAVNDAVMVLKNAIKLMELDTQQLMLADADNDGKITVNDAVMILKKAIKLID	-0.149
HMDPTLFRLNILEGLGLEKKNLTSEEQEQLRFLYEHFSMKEILMTIDYIKKLNLEKSIVNLYRLMQHP	-0.823
HMDPTVEENKLNPRDLLIIQRVKEGRTNKEIAEELNVAEITVKKQLSSLYQRYKVHNRNQLLLALD	-0.285
HMDPVQLEVIKKLNLLNAQKPKDIYALRDVLSEMFPQSDIRLLLKELLDKGYIYWNGHEVIYSHEMF	-0.272
HMDPYEYQLELEKLINNATELNKKYNYDPLKDKILAADAVKNSLETYVLQNYIVALENEIKQTLNQYQIL	-0.685
HMDQNDYMLTRIRNGQMRNKVSVSMPASKIKSAIAAVLKDEGYIENFALNDSSGKPSLIVNLKYYAGQPV	-0.0681
HMDQPVIDVREFGARGDGKQDDAPAIQAAVRLAEQLGGGRVVVPATREFYLLGSTIRIRGHHVTLTGPGAR	0.0456

Sequence	soluble fraction (log2)
HMDRAIAAHLEARVRDALKQLSPEQTRVIELFFFDNKTHAEIENDLKIPLGTVKSRLRLALNKLRASL	-2.55
HMDRASGEEEALKEAEDAISRVWEFDGPVELNPQNSYLRRLQHELASRYNVKSVSIGQEPNRRVVYYK	-0.163
HMDRDPAEAGYDDGYLSGNTDGMNNDERATYDESSQYPTPDERQSYAAAYRRGYAAGFADGRKQAV	-0.000174
HMDREIVEAIVPLEAAGKRFDAALAEMFPEFSRSRLTEWIKAGDALLAGEIVKPKVSVRGGEAVSLSIRV	-0.765
HMDRELVALVQKALSQLSEQQRRIVELHVMEGMKYLEIADLLQLSENTVRTHLKRAYKILRENH	-1.98
HMDRERFIKLGREIARAAFENVGKKATDKVLNSAAKKLRLEDGDEVLARLGSAEIEARSVVQAVYPDLI	0.286
HMDRKARRKYIEQVVNDRKIETQEELLKLLTEAGFETTQATISRDIHALNIVKANDGDGHTHYVQLH	-0.0596
HMDRKEEIIIVTLKLASQIGLSNVSMEQIAKQVGIKKPSLYNHFKSKDEIIDAMYEYLREKSKN	-2.16
HMDRMIPPYGLEVTYDKTTHIIFPSAVRYVDLGSPNLIAGKADGSENVIRVKATRKNFREETNMSVITE	0.152
HMDRPEPLYIVNGKEVQTLEEAFELGRTLGSAKKGTQVRLRRLLPEEGVEKYGEKGRNGVFEFMVSA	0.269
HMDRPLRTKEHFARFAGEQVVVKTSSPIDGRSSFTGTLEGMEGDDVIVEVDGSRIAIGYSLIKRAHVVG	0.00178
HMDRRFFVAEENYKRLDVFLSERMEEFTRSRIKKLIDEGHVELNGKSAKAGAEIRPGDEVAAEIPEVKE	0.195
HMDRRIDIANAVKTALGSLPERQKTAIVLVHYEGFSGAETAKLLGISVEAVESLLARARRNLRQTLGP	-0.471
HMDRTIGEIGLVTETIDSTLESGRVMVDGLSWKARTSDNTVLEAGTRVQVKEIHGVTLTVEKA	0.292
HMDRTLTYTVSIEESDLRADQFLSRRGFSSHLLTRLRKNMEHLLINGTPSRTNTHLHEGDILTVHIVEE	-2.19
HMDRWTPLIVAVLIEGSHRFGELRSAIGGITPKVLTETLRSMERDGLVTRDQVPGVPPRVDYALTPLG	-0.462
HMDRYVDEEKRFYWRSGEAYLNFSKYKDRSLAEVATVDPGFLRWMMEADFSPETKQIVERALEGEFPQKK	-0.29
HMDSADADLLRRIEDLLSSRRSVIREARLADMLGVPRDQVARALDLLQERGVIGLTTDSGMKRIAFRRN	-0.356
HMDSAQLARWAATILAQNGRKITPSTMNLFLERVGDDMENIRMELEKLISYTMGSEVVTAEDVKVITTVQ	-1.01
HMDSAVLQKHLVKLIELHAPIKARNLAKILADEFGKHVDRSAVNSALYSLKAERKVEVNSSYEWSLD	-2.25
HMDSDRAARLSSLTPQQFRVLRMVSEGQLNKQIAYQLNISEATVKSHVSAILQKLGVNSRTQAVILATRLD	-3.37
HMDSEQLSGLVNMGFSVYQAKTALEMFDNDIERAANYL	-0.478
HMDSERTALLSSDRTSFTAREAALLIGVSQRDIYRMIEDELLDSFTVGKMIRIRRSALEWWLS	-2.93
HMDSFEEGTYRKNQRGFGFVKIENQEDEIFISKENSLNALNGDRVIVEIIEDKDRTKRAEGKIKKILKHE	0.531
HMDSGLLSAREREVAGLVLSGMTYAEIGEAIFISPRTAEHHIARIRRRLGATSRTDLIAKLQAIVGID	-3.41
HMDSGVPEWLASALRASPVAWKNFLALPPSHQRRYVGWISSARRDETRNRRIAEAISLLVEHKRLG	-2.18

Sequence	soluble fraction (log2)
HMDSIKDQIYQILKEDILTGELRSGEQLVEQTIAARFNTSRSPVREAIKQLTGDGLVINITNKGTFVK	0.227
HMDSISEQIYSIIKEEILLAKRKPGEQINPRKLADEFETSVMPIRDALNQLANEGLVIRKPRVGFFVR	-0.501
HMDSITEADLLRWAHALSGIARTGLGFTESRYERERYEEVLAVAADILAASSRSHDRAALVDEWLKMVGV	-2.03
HMDSKKNLLGKNGLAFTTLRPAGTVLIDGQRHDVISNGDMIPKGATVRVIAIEGASITVEALPD	0.0814
HMDSMATVPDLVGKTEDEAKALANDAHLGVQMAGEEASDQEKGKISRQETAAGTQVAEYTTVKYWVSTGTQ	0.763
HMDSPALAIPSSAILRDGLEHIFFRQDPSDPDQVIRVVADLGLSDGRWTVVRSGLERTDQVVLSGA	0.181
HMDSQKKNETLSSTADEIIKNYAGKRDLSEESMEQLEQFQKDMRGADVNIFTAAQIRMLDQIFQENLH	0.221
HMDSSLVWVDYLLGSKLTKLNSSNELTGPGASAKTIGAFLGENKQSFDLYIESVHNARDTYSDILTHGT	-0.186
HMDSSSYSAKVGTLIQETRQARGMTQAQLAQALGTSQSAINRIEKGGQNISLDMLNRISEVLSSQIVTLNP	-0.0411
HMDSVAKSFLAEIERFLETAGLEPTTLGKQALGDPSFVFDLRKGRSPSTRTIGKLRVWMQQQNALS	-1.34
HMDSVTLGISFNGKTRFTLDFPADAAAADIEKAALEAEQSQRYLEGMTVAKVIVVPGRIVNIVLK	-2.23
HMDSVTMYATTGVNVRSGPSTSYSIVGGLDRGDKVTRIGTSGNWTKVVWGNGSAYVFSKYLQTGY	-3.04
HMDTAEQNWRLRGKLVTLGLNARQIRMALASHAPRYLEDNIAVVERDLAAGKVRNLPAYLLAALREDYRP	-1.86
HMDTEIGDILALRQIMELLDEKDRQLIIMRYFQGLTQSVTAKNLNMTQVQVSRREKKLLTFMREQLL	-0.702
HMDTEVVMINVVGMNIDKAKNSLNHKNILYKISYQDVSEGENNVVLKQSISSNTKIKKGQVVSLVVGKLN	-1.42
HMDTFEITVEESDIDKRIDLFLAGNLESFSRSYIQDLIKKGKATISGKPVKANYRLREGDSVVLSIPKPK	-0.209
HMDTGKLQSLVGSRGVAHTVLRPSGKVMIGDDVYPAVAETGFIPRGTAIVVRREEQGQLYVVEARK	-0.318
HMDTGPISGQVEADRVEVHGHLDGKISAQNVVVGQTGVVKGDIEFGENLRTEEGADIEGYIK	0.0611
HMDTGPSFATRRQEAFNALTQIAASNKEFMNVAGDVLWKVADFPEAQILAQRWRRIIPPNVLGEA	-0.465
HMDTIAEFIAELTPLEQKVFHVYYEKGQSLKDTAQQAEITSTSARGALDRIRAKGRHFHLAVILFIG	-0.7
HMDTINEYERNILSLITSKPGISAVQIAADTDKSIITAKRGIKTLVDGKLIEYRGSKKTGGYFLLTQS	-0.41
HMDTIYMVVAKNIKYYRLIKSMSKKDLAEAVNVTPMAISNYENGKRKPEIDILKKIANVLGVRVVDFLTVR	-4.45
HMDTKLFNYGVGKHAYISWNEGGKRTAYIGFGNDGADVLTINNVKQGGSLGIYKDKITLNSQTVLTD	-0.038
HMDTLHGRILEEFSRKIVDGTWPPGFSLPKETELADQYGVSRMTMNKVLTRLASDGFVIRRKRSGTVVAQP	-1.34
HMDTLTRAMVWTIIARAEGVDTTGGATWYAKAQEWVTAKGISDGENPNAAITRQELVTMLYRLAGEPAV	-3.56
